Publication PMC2864300, “Regulation of NOXO1 Activity through Reversible Interactions with p22^phox and NOXA1” (PLoS ONE, 2010)
Read-outs that look alike come from different tables or passages of the source.

Assays:
murine p22^phoxC = experiment: ITC, binding to mouse p22phox cytoplasmic domain
Description: Complex formation between NOXO1, NOXA1 and p22^phox fragments or peptides were measured by isothermal titration calorimetry using a MicroCal VP-ITC calorimeter (MicroCal Inc., Northampton, USA). All proteins were dialysed against ITC buffer (150 mM NaCl, 1 mM DTT and 50 mM HEPES, pH 7.4) and performed at 18°C. All peptides were dissolved in ITC buffer. Typically, 20–40 µM of protein in the cell was titrated by stepwise injections of a total of 200–300 µM of the ligand. Heats of dilution were determined by titrating protein or peptide into ITC buffer and subtracted from the raw ITC data prior to analysis with the software, Origin version 7.0, assuming a single-site binding model. Data were averaged over three to five experiments.

SH3 domain of NOXA1 = conditions: GST pull-downs; cited from earlier work
Text: To gain further insight into the molecular basis of complex formation between these two proteins we measured binding of the human and mouse NOXA1-SH3 ...

NOXA1 = conditions: COS cells; cited from earlier work
p67^phox = conditions: cited from earlier work
Text: The phagocytic oxidase is still the best characterized member of this protein family and consists of a heterodimeric flavocytochrome (containing NOX2 and p22^phox) that makes up the catalytic core of the enzyme plus the cytosolic regulatory subunits p40^phox, p47^phox and p67^phox and the small GTPase Rac, [16]–[18]. Because excessive ROS production is cytotoxic and can induce a number of pathological processes, complicated regulatory mechanisms have evolved that tightly control the activity of the phagocytic oxidase. […] To gain further insight into the molecular basis of complex formation between these two proteins we measured binding of the human and mouse NOXA1-SH3 ... || In the phagocytic oxidase the p47^phox-p67^phox interaction is unusually strong (Kd of 20 nM), [26], due to the presence of two protein interfaces: contacts are made via the conserved PxxPxR motif (at amino acids 363–368), but also via an additional surface composed of residues 369–390 of p47^phox, which fold into a helix-turn-helix (HTH) motif and pack against β-sheets 2, 3 and 4 of SH3B p67^phox. Removal of this additional binding motif reduces the affinity for p67^phox to 20 µM.

B1: Mouse NOXO1 SH3AB–E: tandem SH3 domains plus the C-terminal portion of NOXO1 (mouse) (protein)
chain: QSIPCVQPFHTLDIRDRPFHTKAQEILDILLRHPSGWWLVENKDQQVAWFPAPYLEEVATCQGQESGLALQGSGRQFCTTQAYEGSRSDELSVPSGARVHVLETSDRGWWLCRYNGRTGLLPAMSLQPEGLGSLLGRPGFPDSAGADKVAEDRTIPPVVPTRPCMSAIQSRCCSITRRALGQEQGTRVPR
modifications: left off: GST, end not stated, cleaved
- Kd (murine p22^phoxC; ITC, 18°C, 150 mM NaCl, 1 mM DTT, 50 mM HEPES, pH 7.4, mouse p22^phoxC in syringe, NOXO1 construct in cell, averaged over three to five experiments, NB = no binding): 780 ± 60 nM
- ΔH (murine p22^phoxC; ITC, 18°C, pH 7.4, mouse p22^phoxC in syringe, NB = no binding): -7.1 ± 0.05 kcal/mol
- fold weakening of binding to p22^phox (murine p22^phoxC; mouse SH3AB–E in comparison to the tandem SH3 domains): around 10 -fold

B2: NOXO1: NOX organizing protein 1 (protein, UniProt Q8NFA2 1-376, looked up)
NADPH oxidase organizer 1: MAGPRYPVSVQGAALVQIKRLQTFAFSVRWSDGSDTFVRRSWDEFRQLKKTLKETFPVEAGLLRRSDRVLPKLLGQASLDAPLLGRVGRTSRGLARLQLLETYSRRLLATAERVARSPTITGFFAPQPLDLEPALPPGSRVILPTPEEQPLSRAAGRLSIHSLEAQSLRCLQPFCTQDTRDRPFQAQAQESLDVLLRHPSGWWLVENEDRQTAWFPAPYLEEAAPGQGREGGPSLGSSGPQFCASRAYESSRADELSVPAGARVRVLETSDRGWWLCRYGDRAGLLPAVLLRPEGLGALLSGTGFRGGDDPAGEARGFPEPSQATAPPPTVPTRPSPGAIQSRCCTVTRRALERRPRRQGRPRGCVDSVPHPTTEQ
- binding to the SH3 domain of NOXA1 (SH3 domain of NOXA1): failed to bind the SH3 domain of NOXA1
- co-immunoprecipitation of NOXO1 and NOXA1 (NOXA1): both proteins could be co-immunopricipitated from COS cells

B3: p47^phox: cytosolic regulatory subunit of the phagocytic NADPH oxidase (protein, UniProt P14598 1-390, looked up)
Neutrophil cytosol factor 1: MGDTFIRHIALLGFEKRFVPSQHYVYMFLVKWQDLSEKVVYRRFTEIYEFHKTLKEMFPIEAGAINPENRIIPHLPAPKWFDGQRAAENRQGTLTEYCSTLMSLPTKISRCPHLLDFFKVRPDDLKLPTDNQTKKPETYLMPKDGKSTATDITGPIILQTYRAIANYEKTSGSEMALSTGDVVEVVEKSESGWWFCQMKAKRGWIPASFLEPLDSPDETEDPEPNYAGEPYVAIKAYTAVEGDEVSLLEGEAVEVIHKLLDGWWVIRKDDVTGYFPSMYLQKSGQDVSQAQRQIKRGAPPRRSSIRNAHSIHQRSRKRLSQDAYRRNSVRFLQQRRRQARPGPQSPGSPLEEERQTQRSKPQPAVPPRPSADLILNRCSESTKRKLASAV
- Kd (p67^phox; additional binding motif (residues 369–390 of p47^phox) removed, ref [25], [26], read-out: affinity for p67^phox after removal of additional binding motif): 20000 nM
- Kd (p67^phox; interaction with C-terminal SH3 domain of p67^phox, ref [25]–[27], read-out: affinity for p67^phox): 20 nM
